# Where two headings read alike, the source gives them in different places.
# T1: CD97 (ADGRE5) isoform 1 ectodomain, purified and biotinylated (human, UniProt P48960 21-552, limits assumed, biotinylated in vitro using the BirA enzyme)
# T1 construct: the whole entry for isoform 1 is named here; also called CD97 isoform 1; Biotinylated CD97 isoform 1
# T1 sequence: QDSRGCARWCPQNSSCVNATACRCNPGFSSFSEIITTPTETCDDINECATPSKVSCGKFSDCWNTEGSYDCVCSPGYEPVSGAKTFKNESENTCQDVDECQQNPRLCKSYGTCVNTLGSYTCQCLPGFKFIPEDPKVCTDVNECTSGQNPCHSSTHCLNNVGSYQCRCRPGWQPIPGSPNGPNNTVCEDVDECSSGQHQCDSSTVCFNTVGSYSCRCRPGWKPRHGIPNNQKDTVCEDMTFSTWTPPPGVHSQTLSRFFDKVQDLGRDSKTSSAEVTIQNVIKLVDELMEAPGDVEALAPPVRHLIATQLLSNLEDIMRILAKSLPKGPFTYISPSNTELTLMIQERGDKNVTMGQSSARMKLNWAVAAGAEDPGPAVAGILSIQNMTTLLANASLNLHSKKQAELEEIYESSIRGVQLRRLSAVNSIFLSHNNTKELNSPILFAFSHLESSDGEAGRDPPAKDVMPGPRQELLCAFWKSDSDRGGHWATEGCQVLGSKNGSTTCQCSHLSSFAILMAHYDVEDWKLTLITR
# T2: CD97 (ADGRE5) isoform 2 ectodomain, purified and biotinylated (human, UniProt P48960 21-552, biotinylated in vitro using the BirA enzyme)
# T2 construct: the whole entry for isoform 2 is named here; also called CD97 isoform 2
# T2 sequence: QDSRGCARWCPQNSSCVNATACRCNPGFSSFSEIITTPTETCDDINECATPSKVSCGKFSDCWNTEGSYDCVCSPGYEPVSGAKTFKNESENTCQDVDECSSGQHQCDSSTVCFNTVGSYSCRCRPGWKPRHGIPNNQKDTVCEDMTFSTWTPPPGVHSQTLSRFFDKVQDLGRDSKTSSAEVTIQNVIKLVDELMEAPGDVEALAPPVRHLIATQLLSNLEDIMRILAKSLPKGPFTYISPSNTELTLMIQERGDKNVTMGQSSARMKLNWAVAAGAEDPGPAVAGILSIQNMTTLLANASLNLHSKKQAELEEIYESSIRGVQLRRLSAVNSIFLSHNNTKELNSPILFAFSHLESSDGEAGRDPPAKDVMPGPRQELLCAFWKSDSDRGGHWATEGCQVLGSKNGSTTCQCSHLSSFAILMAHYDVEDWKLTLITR
# B1: Antibody clone C27, human IgG1 LALA-PG format (antibody, V domains shown)
# VH: EVQLVESGGGLVQPGGSLRLSCAASGFTLSSSSIHWVRQAPGKGLEWVASIYSYYGSTYYADSVKGRFTISADTSKNTAYLQMNSLRAEDTAVYYCARYRGNMYYWESWYGSYWALDYWGQGTLVTVSS
# VL: DIQMTQSPSSLSASVGDRVTITCRASQSVSSAVAWYQQKPGKAPKLLIYSASSLYSGVPSRFSGSRSGTDFTLTISSLQPEDFATYYCQQSSSSLITFGQGTKVEIKR
# B2: hIgG1_LALA D25 (antibody, V domains shown)
# VH: EVQLVESGGGLVQPGGSLRLSCAASGFTFSSSSIHWVRQAPGKGLEWVASISPYYGSTSYADSVKGRFTISADTSKNTAYLQMNSLRAEDTAVYYCARKLEWGMFFWSPYFRALDYWGQGTLVTVSS
# VL: DIQMTQSPSSLSASVGDRVTITCRASQSVSSAVAWYQQKPGKAPKLLIYSASSLYSGVPSRFSGSRSGTDFTLTISSLQPEDFATYYCQQSSSSLITFGQGTKVEIK
# B3: Antibody clone 2V10, human IgG1 LALA-PG format (antibody, V domains shown)
# VH: EVQLVESGGGLVQPGGSLRLSCAASGFTISSSSIHWVRQAPGKGLEWVAYIYPSSGSTSYADSVKGRFTISADTSKNTAYLQMNSLRAEDTAVYYCARPWYYSTFNKKWWDYQGLDYWGQGTLVTVSS
# VL: DIQMTQSPSSLSASVGDRVTITCRASQSVSSAVAWYQQKPGKAPKLLIYSASSLYSGVPSRFSGSRSGTDFTLTISSLQPEDFATYYCQQSWWDPITFGQGTKVEIKR
# B4: hIgG1_LALA 2W1 (antibody, V domains shown)
# VH: EVQLVESGGGLVQPGGSLRLSCAASGFTVSSSSIHWVRQAPGKGLEWVAYISSSSGSTYYADSVKGRFTISADTSKNTAYLQMNSLRAEDTAVYYCARDFYFGSYYSFGWGLDYWGQGTLVTVSS
# VL: DIQMTQSPSSLSASVGDRVTITCRASQSVSSAVAWYQQKPGKAPKLLIYSASSLYSGVPSRFSGSRSGTDFTLTISSLQPEDFATYYCQQDSSYPITFGQGTKVEIK
# B5: hIgG1_LALA 2Z3 (antibody, V domains shown)
# VH: EVQLVESGGGLVQPGGSLRLSCAASGFTFSSSSIHWVRQAPGKGLEWVASISSSSGSTSYADSVKGRFTISADTSKNTAYLQMNSLRAEDTAVYYCARVLLGKFWYYNYYEYSAMDYWGQGTLVTVSS
# VL: DIQMTQSPSSLSASVGDRVTITCRASQSVSSAVAWYQQKPGKAPKLLIYSASSLYSGVPSRFSGSRSGTDFTLTISSLQPEDFATYYCQQSSSSLITFGQGTKVEIK
# B6: Fab A1 (Fab, V domains shown)
# VH: EVQLVESGGGLVQPGGSLRLSCAASGFTISSSSIHWVRQAPGKGLEWVASIYSYYGSTYYADSVKGRFTISADTSKNTAYLQMNSLRAEDTAVYYCARPVYGQLGYWTQRWSGMDYWGQGTLVTVSS
# VL: DIQMTQSPSSLSASVGDRVTITCRASQSVSSAVAWYQQKPGKAPKLLIYSASSLYSGVPSRFSGSRSGTDFTLTISSLQPEDFATYYCQQYSWSSYLITFGQGTKVEIKR
# notes: first discovery campaign; also called Antibody Clone A1
# B7: Fab B23 (Fab, V domains shown)
# VH: EVQLVESGGGLVQPGGSLRLSCAASGFTVSSSSIHWVRQAPGKGLEWVASIYPYSGSTSYADSVKGRFTISADTSKNTAYLQMNSLRAEDTAVYYCARSLGWHRHYNYYFYFYANAIDYWGQGTLVTVSS
# VL: DIQMTQSPSSLSASVGDRVTITCRASQSVSSAVAWYQQKPGKAPKLLIYSASSLYSGVPSRFSGSRSGTDFTLTISSLQPEDFATYYCQQYWGSDPITFGQGTKVEIKR
# notes: first discovery campaign; also called Antibody Clone B23
# B8: Fab B25 (Fab, V domains shown)
# VH: EVQLVESGGGLVQPGGSLRLSCAASGFTISSSSIHWVRQAPGKGLEWVASISSYSGSTSYADSVKGRFTISADTSKNTAYLQMNSLRAEDTAVYYCARSFFKYYLWYGYHNYWSAIDYWGQGTLVTVSS
# VL: DIQMTQSPSSLSASVGDRVTITCRASQSVSSAVAWYQQKPGKAPKLLIYSASSLYSGVPSRFSGSRSGTDFTLTISSLQPEDFATYYCQQSSSSLITFGQGTKVEIKR
# notes: first discovery campaign; also called Antibody Clone B25
# B9: Fab B34 (Fab, V domains shown)
# VH: EVQLVESGGGLVQPGGSLRLSCAASGFTVSYSSIHWVRQAPGKGLEWVASIYSSSGYTSYADSVKGRFTISADTSKNTAYLQMNSLRAEDTAVYYCARSYYRYYLSPIYWGSWGMDYWGQGTLVTVSS
# VL: DIQMTQSPSSLSASVGDRVTITCRASQSVSSAVAWYQQKPGKAPKLLIYSASSLYSGVPSRFSGSRSGTDFTLTISSLQPEDFATYYCQQSGYYGHLITFGQGTKVEIKR
# notes: first discovery campaign; also called Antibody Clone B34
# B10: Fab C14 (Fab, V domains shown)
# VH: EVQLVESGGGLVQPGGSLRLSCAASGFTVSSSSIHWVRQAPGKGLEWVASIYSYSGSTSYADSVKGRFTISADTSKNTAYLQMNSLRAEDTAVYYCARSFGWGQSFYYSHYFYITAFDYWGQGTLVTVSS
# VL: DIQMTQSPSSLSASVGDRVTITCRASQSVSSAVAWYQQKPGKAPKLLIYSASSLYSGVPSRFSGSRSGTDFTLTISSLQPEDFATYYCQQYWHESLITFGQGTKVEIKR
# notes: first discovery campaign; also called Antibody Clone C14
# B11: Fab B20 (Fab, V domains shown)
# VH: EVQLVESGGGLVQPGGSLRLSCAASGFTISSSSIHWVRQAPGKGLEWVASISSSSGSTSYADSVKGRFTISADTSKNTAYLQMNSLRAEDTAVYYCARIRHYHWYEIPYWDWAIDYWGQGTLVTVSS
# VL: DIQMTQSPSSLSASVGDRVTITCRASQSVSSAVAWYQQKPGKAPKLLIYSASSLYSGVPSRFSGSRSGTDFTLTISSLQPEDFATYYCQQSSSSLITFGQGTKVEIKR
# notes: first discovery campaign; also called Antibody Clone B20
# B12: Fab 2Z7 (Fab, V domains shown)
# VH: EVQLVESGGGLVQPGGSLRLSCAASGFTFSSSSIHWVRQAPGKGLEWVASISSSSGSTSYADSVKGRFTISADTSKNTAYLQMNSLRAEDTAVYYCARSYWERYYYWYYFYQYELGLDYWGQGTLVTVSS
# VL: DIQMTQSPSSLSASVGDRVTITCRASQSVSSAVAWYQQKPGKAPKLLIYSASSLYSGVPSRFSGSRSGTDFTLTISSLQPEDFATYYCQQSSSSLITFGQGTKVEIKR
# notes: second discovery campaign; biotinylated Fab in the bead assay; also called Antibody Clone 2Z7
# B13: Fab 2Z11 (Fab, V domains shown)
# VH: EVQLVESGGGLVQPGGSLRLSCAASGFTFYYSSIHWVRQAPGKGLEWVASIYSYSGYTSYADSVKGRFTISADTSKNTAYLQMNSLRAEDTAVYYCARYYISGPYYAYRSYTSYAMDYWGQGTLVTVSS
# VL: DIQMTQSPSSLSASVGDRVTITCRASQSVSSAVAWYQQKPGKAPKLLIYSASSLYSGVPSRFSGSRSGTDFTLTISSLQPEDFATYYCQQYWGYSLITFGQGTKVEIKR
# notes: second discovery campaign; biotinylated Fab in the bead assay; also called Antibody Clone 2Z11
# B14: Fab B3 (Fab, V domains shown)
# VH: EVQLVESGGGLVQPGGSLRLSCAASGFTFSSSSIHWVRQAPGKGLEWVASISPYSGYTSYADSVKGRFTISADTSKNTAYLQMNSLRAEDTAVYYCARAYYYWSHWYMHYVSYPGGMDYWGQGTLVTVSS
# VL: DIQMTQSPSSLSASVGDRVTITCRASQSVSSAVAWYQQKPGKAPKLLIYSASSLYSGVPSRFSGSRSGTDFTLTISSLQPEDFATYYCQQLRHYSHLITFGQGTKVEIKR
# notes: first discovery campaign; also called Antibody Clone B3
# Columns and labels:
# [1] = target: Endogenous CD97 on the cell surface (human) (UniProt P48960); assay: cell-based binding titration on OCI-AML3 cells, flow cytometry, 1:1 fit
# [2] = target: T1, CD97 (ADGRE5) isoform 1 ectodomain, …; assay: bead-based binding titration (biotinylated antigen on streptavidin beads, flow cytometry), 1:1 fit
# [3] = target: T2, CD97 (ADGRE5) isoform 2 ectodomain, …; assay: as above
# [4] = target: T1, CD97 (ADGRE5) isoform 1 ectodomain, …; assay: as above; remark: listed apart in the source
# [5] = target: T2, CD97 (ADGRE5) isoform 2 ectodomain, …; assay: as above; remark: listed apart in the source
Binder,Kd [1],Kd [2],Kd [3],other results
B1,9.6 nM,–,–,–
B2,1 nM,–,–,–
B3,0.3 nM,–,–,–
B4,25 nM,–,–,–
B5,140 nM,–,–,–
B6,–,1.7 nM,1.7 nM,–
B7,–,0.9 nM,0.9 nM,–
B8,–,5.8 nM,5.5 nM,–
B9,–,2.5 nM,2.7 nM,–
B10,–,4.7 nM,5 nM,–
B11,–,2.3 nM,2.9 nM,–
B12,–,–,–,Kd [4]: 38 nM; Kd [5]: 30 nM
B13,–,–,–,Kd [4]: 3.4 nM; Kd [5]: 3 nM
B14,–,5.8 nM,4.3 nM,–

# Reference: patent US20250051474A1, “ANTI-CD97 ANTIBODIES AND ANTIBODY-DRUG CONJUGATES” (New York University, priority 2023, published 2025)
